We go through four molecules from US7501267B2, “Gene sequence of L-rhamnose isomerase having new catalytic function and use thereof” (Rare Sugar Production Technical Research Laboratories, LLC, priority 2003, dated 2009).

Data set [1] concerns L-rhamnose isomerase produced by Pseudomonas stutzerii LL172. The data set is described as follows: Effect of a chelating agent or metal ion on L-rhamnose isomerase activity. It counts as biochemical. Conditions: for Effect of a chelating agent on activity: coexisting during the measurement of activity.
The test system is the same in data set [2]. As to conditions: Non-Patent Document 3, cited from earlier work; for Effect of a chelating agent on activity: coexisting during the measurement of activity.
Substrate in data set [3]: OC[C@@H]1OC(O)[C@H](O)[C@H](O)[C@H]1O
The data set is described as follows: Km and Vmax of purified L-rhamnose isomerase for a variety of substrates. It counts as biochemical, Pseudomonas stutzeri. Conditions: other: purified enzyme without immobilizing; pH 7.0. On the procedure: (§1) An enzyme was obtained with the same conditions as those of Example 5. The measurement of Km and Vmax was carried out using the enzyme without immobilizing.
(§2) The cells were washed twice with 0.05 M sodium phosphate buffer (pH 7.0). The washed cells were ground with alumina powder and subjected to centrifugation to remove insoluble substances together with alumina powder, whereby a crude enzyme solution was obtained. The obtained crude enzyme solution was subjected to affinity chromatography using an Ni-NTA column to purify the enzyme, whereby a pure enzyme was obtained. After the enzyme was dialyzed against ultrapure water, lyophilization was carried out, whereby pure powder enzyme was obtained. By allowing 20 mg of the enzyme to be adsorbed on 1 g of Chitopearl resin, immobilized enzyme was prepared.

Substrate in data set [4]: C[C@@H]1OC(O)[C@H](O)[C@H](O)[C@H]1O
The data set is described as above. Type of data set: biochemical, Pseudomonas stutzeri. As to conditions: other: purified enzyme without immobilizing; pH 7.0. On the procedure:
as §1, §2

Substrate in data set [5]: OC[C@H]1OC(O)[C@@H](O)[C@H](O)[C@@H]1O
The description is as above. Type of data set: biochemical, Pseudomonas stutzeri. As to conditions: other: purified enzyme without immobilizing; pH 7.0. As for the experimental part:
as §1, §2

Substrate in data set [6]: OC[C@H]1OC(O)[C@H](O)[C@H](O)[C@@H]1O
The data set is described as above. It counts as biochemical, Pseudomonas stutzeri. As to conditions: other: purified enzyme without immobilizing; pH 7.0. On the procedure: as §1, §2

For data set [7] the following is noted: cited from earlier work.
Substrate in data set [8]: OC1OC[C@@H](O)[C@@H](O)[C@H]1O
The data set is described as follows: cells, lysate or membranes named. As to conditions: other: purified enzyme without immobilizing; pH 7.0.

Substrate in data set [9]: OC1OC[C@H](O)[C@H](O)[C@H]1O
The data set is described as follows: cells, lysate or membranes named. As to conditions: other: purified enzyme without immobilizing; pH 7.0.

Substrate in data set [10]: OC1OC[C@H](O)[C@@H](O)[C@H]1O
The data set is described as follows: cells, lysate or membranes named. Conditions: other: purified enzyme without immobilizing; pH 7.0.

Where two headings read alike, the source gives them in different places.

For the molecule `[Co+2]` [cobalt ion], the “Activity inhibited by metal ion” value in [1] (1 mM) and in [2] (1 mM) was “About 30%” throughout.
Turning to `O=C(O)CN(CCN(CC(=O)O)CC(=O)O)CC(=O)O` [EDTA], the “Effect of a chelating agent on activity” value in data set [1] and in data set [2] was “hardly inhibited” each time.
With `O=C(O)CN(CCOCCOCCN(CC(=O)O)CC(=O)O)CC(=O)O` [EGTA], the “Effect of a chelating agent on activity” value in data set [1] and in [2] was “hardly inhibited” throughout.

B1: L-rhamnose isomerase derived from P. stutzeri (Stutzerimonas stutzeri) (protein)
chain: MAEFRIAQDVVARENDRRASALKEDYEALGANLARRGVDIEAVTAKVEKFFVAVPSWGVGTGGTRFARFPGTGEPRGIFDKLDDCAVIQQLTRATPNVSLHIPWDKADPKELKARGDALGLGFDAMNSNTFSDAPGQAHSYKYGSLSHTDAATRAQAVEHNLECIEIGKAIGSKALTVWIGDGSNFPGQSNFTRAFERYLSAMAEIYKGLPDDWKLFSEHKMYEPAFYSTVVQDWGTNYLIAQTLGPKAQCLVDLGHHAPNTNIEMIVARLIQFGKLGGFHFNDSKYGDDDLDAGAIEPYRLFLVFNELVDAEARGVKGFHPAHMIDQSHNVTDPIESLINSANEIRRAYAQALLVDRAALSGYQEDNDALMATETLKRAYRTDVEPILAEARRRTGGAVDPVATYRASGYRARVAAERPASVAGGGGII
With B1, the “Optimal pH” value is reported as 9.0 and the Optimal temperature came out at 60 °C. In addition, the “Temperature stability, activity remaining” value (10 min) is recorded as no less than 90%. In addition, in [3], the Michaelis-Menten constant (Km) came out at 55.5 mM and the Vmax is 139 µmol/min/mg. In addition, in data set [4], the Km amounted to 11.9 mM and the Vmax amounted to 238 µmol/min/mg. Besides, in data set [5], the Km worked out at 71 mM and the Vmax came out at 0.01 µmol/min/mg. In addition, in data set [6], the Km was 42 mM and the maximum rate (Vmax) came to 6.76 µmol/min/mg. The “Temperature stability, activity remaining” value in data set [7] (10 min) was no less than 90%. Also, in data set [7] (Non-Patent Document 3), the “Optimal pH” value is reported as 9.0 and the Optimal temperature was 60 °C. For the same molecule, in data set [8], the Km came to 38.5 mM and the maximum rate (Vmax) was found to be 21.4 µmol/min/mg. Moreover, in data set [9], the Km stood at 2.35 mM and the maximal velocity (Vmax) stood at 0.061 µmol/min/mg. In [10], the Michaelis-Menten constant (Km) is reported as 61.7 mM and the maximal velocity (Vmax) was 123 µmol/min/mg.
